Data taken from US20110195072A1, “NON-NEUROENDOCRINE CANCER THERAPY” (priority 2006, published 2011).

Tests used:
Assay type in all cases: cell-based, human
[1] = test system: MCF7 cells; assay: GDNF-induced Erk (MAPK) activation after siRNA transfection, immunoblot; settings: 72 hrs after siRNA transfection, 10 ng/ml GDNF for 10 min
Experimental: (§1) MCF7 and T47D cells are seeded at 5×10^5/4 ml in 6 cm plates for 24 hrs. Cells are transfected with siRNAs targeting Ret (siRet1: […] siRet2: […]; Qiagen) or a control siRNA targeting LacZ ([…]) using Oligofectamine (12252-011, Invitrogen) and HiPerFect, respectively. After 72 hrs, cells are stimulated with 10 ng/ml GDNF alone (for 10 min in MCF7) or together with 100 ng/ml GFRα1 (for 30 min in T47D; rhGFRα1/Fc chimera 714-GR, R&D Systems), extracted and resolved by 12.5% SDS-PAGE electrophoresis and immunoblot analysis is performed using rabbit polyclonal antibodies against Erk (MAPK) and phospho-Erk (p-MAPK: see FIG. 7).

[2] = test system: T47D cells; assay: as above; settings: 72 hrs after siRNA transfection, 10 ng/ml GDNF with 100 ng/ml GFRα1 for 30 min
Experimental: as §1

[3] = test system: Ret; assay: Ret expression after siRNA transfection (Western blot and PCR) in MCF7 cells; settings: 20 nM siRNA
Experimental: MCF7 cells are seeded at a density of 10^5 cells/well in 6 well plates. 24 hours after seeding, cells are transfected with control lacZ siRNA or Ret siRNA (Qiagen, 96165/96166) at a final siRNA concentration of 20 nM using HiPerFect transfection reagent (Qiagen, 301705). siRNA targeting sequences are as following:
Ret9 and Ret51 protein expression is analyzed 72 hours post siRNA transfection using polyclonal antibodies from Santa Cruz (C-19 against Ret9: sc-167; C-20 against Ret51: sc-1290) and direct Western Blot analysis with 50 μg of total protein extract (FIG. 2 Panel A). […] As a control, total RNA is extracted in a parallel experiment (RNeasy, 74104, Qiagen). First-strand cDNA is synthesized using SuperScript III First-Strand Synthesis System for RT-PCR (Invitrogen, 18080-051), using random hexamer primers.

[4] = test system: MCF7 cells; assay: Anchorage-independent cell proliferation (polyheme assay); settings: 10 ng/ml GDNF alone for 4 days, polyheme-coated plates
Experimental: (§2) MCF7 and T47D cells are seeded at 5×10^5/4 ml in 6 cm plates coated with polyheme (P3932, Sigma) to prevent adhesion of the cells to the substratum. Cells are treated with 10 ng/ml GDNF alone (MCF7) or together with 100 ng/ml GFRα1 (T47D) for 4 days. Cells were collected, trypsinized and counted (Vi-cell XR, Beckman Coulter).
(§3) MCF7 and T47D cells are seeded at 10^6/4 ml in 6 cm plates coated with polyheme. Cells are pretreated with 100 nM of a Ret inhibitor [repeat name of compound from earlier] or the vehicle DMSO for 1 hr, and then treated with 10 ng/ml GDNF alone (MCF7) or together with 100 ng/ml GFRα1 (T47D) for 4 days. Cells are collected, trypsinized and counted (Vi-cell XR, Beckman Coulter).

[5] = test system: T47D cells; assay: as above; settings: 10 ng/ml GDNF with 100 ng/ml GFRα1 for 4 days, polyheme-coated plates
Experimental: as §2, §3

[6] = test system: MCF7 cells; assay: Soft agar colony assay (anchorage-independent proliferation); settings: 10 or 100 ng/ml GDNF alone, every week for 4 weeks
Experimental: (§4) MCF7 and T47D cells are treated with 10 or 100 ng/ml GDNF alone (MCF7) or together with 100 ng/ml GFRα1 (T47D) for 10 to 20 min in suspension and subsequently seeded at 10^5/2 ml in 6-well plates in a soft agar layer. Cells are treated again with GDNF alone or together with GFRα1 every week for 4 weeks in fresh medium. Colonies are stained with nitrotetrazolium blue and counted (Artek counter 880, Dynatech Laboratories).

[7] = test system: T47D cells; assay: as above; settings: 10 or 100 ng/ml GDNF with 100 ng/ml GFRα1, every week for 4 weeks
Experimental: as §4

[8] = test system: MCF7 cells; assay: GDNF stimulation of Erk and JNK/SAPK phosphorylation, immunoblot; settings: 100 ng/ml GDNF, 5 min to 8 hrs
Experimental: (§5) MCF7 and T47D cells are seeded at 3×10^6/15 ml and 3×10^6/10 ml in 15 and 10 cm plates for 2 days respectively. Cells are serum deprived (0.1% FCS) for 16 to 24 hrs or refed with normal medium. Cells are stimulated with 100 ng/ml GDNF (450-10, PeProTech) for 5, 10, 20, or 30 min 1, 4 or 8 hrs. Cell extracts are resolved by 10 or 12.5% SDS-PAGE electrophoresis and immunoblot analysis is performed using rabbit polyclonal antibodies raised against Erk (MAPK: 9102, Cell Signaling Technology) phospho-Erk (P-MAPK: […]; 9101) JNK/SAPK (9251) and phospho-JNK/phospho-SAP (Thr183/Tyr185; 9252) (see FIG. 6).

[9] = test system: T47D cells; assay: as above; settings: 100 ng/ml GDNF, 5 min to 8 hrs
Experimental: as §5

siRet1: siRNA targeting Ret, targeting sequence CCGCTGGTGGACTGTAATAAT (Qiagen) (target sequence only, siRNA duplex strands not listed, further chemistry not given here)
GDNF-induced activation of Erk (MAPK) [1]: prevents | GDNF-induced activation of Erk (MAPK) [2]: prevents | Ret9 protein expression (Western blot signal) ([3]; 72 hours post transfection, antibody C-19): reduction in signal | Ret51 protein expression (Western blot signal) ([3]; 72 hours post transfection, antibody C-20): reduction in signal | Ret mRNA expression (PCR) ([3]; parallel experiment): reduction in Ret mRNA

siRet2: siRNA targeting Ret, TAGGCTGGTTCTCAACCGGAA (Qiagen) (target sequence only, siRNA duplex strands not listed, further chemistry not given here)
GDNF-induced activation of Erk (MAPK) [1]: prevents | GDNF-induced activation of Erk (MAPK) [2]: prevents

B1: GDNF: glial-derived neurotrophic factor, specific ligand of Ret (450-10, PeProTech) (protein, UniProt P39905 78-211, looked up)
Glial cell line-derived …: SPDKQMAVLPRRERNRQAAAANPENSRGKGRRGQRGKNRGCVLTAIHLNVTDLGLGYETKEELIFRYCSGSCDAAETTYDKILKNLSRNRRLVSDKVGQACCRPIAFDDDLSFLDDNLVYHILRKHSAKRCGCI
modifications: recombinant, PeProTech
anchorage-independent cell proliferation (cell count) [4]: significantly enhances | anchorage-independent cell proliferation (cell count) [5]: significantly enhances | number of colonies in soft agar [6]: significantly increased the number of colonies in a concentration-dependent manner | number of colonies in soft agar [7]: significantly increased the number of colonies in a concentration-dependent manner | phosphorylation of Erk [8]: increased phosphorylation | phosphorylation of JNK/SAPK [8]: increased phosphorylation | phosphorylation of Erk [9]: increased phosphorylation | phosphorylation of JNK/SAPK [9]: increased phosphorylation
